To fix the notation:
B1: PIGS, subunit of the human GPI transamidase (GPI-T) (natural protein)
chain: AAAGAAATHLEVARGKRAALFFAAVAIVLGLPLWWKTTETYRASLPYSQISGLNALQLRLMVPVTVVFTRESVPLDDQEKLPFTVVHEREIPLKYKMKIKCRFQKAYRRALDHEEEALSSGSVQEAEAMLDEPQEQAEGSLTVYVISEHSSLLPQDMMSYIGPKRTAVVRGIMHREAFNIIGRRIVQVAQAMSLTEDVLAAALADHLPEDKWSAEKRRPLKSSLGYEITFSLLNPDPKSHDVYWDIEGAVRRYVQPFLNALGAAGNFSVDSQILYYAMLGVNPRFDSASSSYYLDMHSLPHVINPVESRLGSSAASLYPVLNFLLYVPELAHSPLYIQDKDGAPVATNAFHSPRWGGIMVYNVDSKTYNASVLPVRVEVDMVRVMEVFLAQLRLLFGIAQPQLPPKCLLSGPTSEGLMTWELDRLLWARSVENLATATTTLTSLAQLLGKISNIVIKDDVASEVYKAVAAVQKSAEELASGHLASAFVASQEAVTSSELAFFDPSLLHLLYFPDDQKFAIYIPLFLPMAVPILLSLVKIFLETRKSWRKPEKTD
notes: PIGS, human, Genbank ID NP_149975.1; The Myc tag follows the TGP tag; also called Gpi17p (yeast name); source: Expi293 cells co-transfected with five plasmids carrying all subunits; purified as the GPI-T complex (Strep-Tactin, Ni-NTA, gel filtration) in digitonin
B2: PIGT, subunit of the human GPI transamidase (GPI-T) (natural protein)
chain: LAEPPRDSLREELVITPLPSGDVAATFQFRTRWDSELQREGVSHYRLFPKALGQLISKYSLRELHLSFTQGFWRTRYWGPPFLQAPSGAELWVWFQDTVTDVDKSWKELSNVLSGIFCASLNFIDSTNTVTPTASFKPLGLANDTDHYFLRYAVLPREVVCTENLTPWKKLLPCSSKAGLSVLLKADRLFHTSYHSQAVHIRPVCRNARCTSISWELRQTLSVVFDAFITGQGKKDWSLFRMFSRTLTEPCPLASESRVYVDITTYNQDNETLEVHPPPTTTYQDVILGTRKTYAIYDLLDTAMINNSRNLNIQLKWKRPPENEAPPVPFLHAQRYVSGYGLQKGELSTLLYNTHPYRAFPVLLLDTVPWYLRLYVHTLTITSKGKENKPSYIHYQPAQDRLQPHLLEMLIQLPANSVTKVSIQFERALLKWTEYTPDPNHGFYVSPSVLSALVPSMVAAKPVDWEESPLFNSLFPVSDGSNYFVRLYTEPLLVNLPTPDFSMPYNVICLTCTVVAVCYGSFYNLLTRTFHIEEPRTGGLAKRLANLIRRARGVPPL
modifications: disulfide bond from C182 to PIGK C92
notes: PIGT, human, Genbank ID NP_057021.2; also called Gpi16p (yeast name); source: Expi293 cells co-transfected with five plasmids carrying all subunits; purified as the GPI-T complex (Strep-Tactin, Ni-NTA, gel filtration) in digitonin; not shown: 9×His, C-terminal, kept
B3: PIGU, subunit of the human GPI transamidase (GPI-T) (natural protein)
chain: AAPLVLVLVVAVTVRAALFRSSLAEFISERVEVVSPLSSWKRVVEGLSLLDLGVSPYSGAVFHETPLIIYLFHFLIDYAELVFMITDALTAIALYFAIQDFNKVVFKKQKLLLELDQYAPDVAELIRTPMEMRYIPLKVALFYLLNPYTILSCVAKSTCAINNTLIAFFILTTIKGSAFLSAIFLALATYQSLYPLTLFVPGLLYLLQRQYIPVKMKSKAFWIFSWEYAMMYVGSLVVIICLSFFLLSSWDFIPAVYGFILSVPDLTPNIGLFWYFFAEMFEHFSLFFVCVFQINVFFYTIPLAIKLKEHPIFFMFIQIAVIAIFKSYPTVGDVALYMAFFPVWNHLYRFLRNIFVLTCIIIVCSLLFPVLWHLWIYAGSANSNFFYAITLTFNVGQILLISDYFYAFLRREYYLTHGLYLTAKDGTEAMLVLK
notes: PIGU, human, Genbank ID NP_536724.1; gene assembled from overlapping oligonucleotides; also called Gab1p (yeast name); source: Expi293 cells co-transfected with five plasmids carrying all subunits; purified as the GPI-T complex (Strep-Tactin, Ni-NTA, gel filtration) in digitonin; not shown: Strep, C-terminal, kept
B4: PIGK, subunit of the human GPI transamidase (GPI-T) (enzyme)
chain: SHIEDQAEQFFRSGHTNNWAVLVCTSRFWFNYRHVANTLSVYRSVKRLGIPDSHIVLMLADDMACNPRNPKPATVFSHKNMELNVYGDDVEVDYRSYEVTVENFLRVLTGRIPPSTPRSKRLLSDDRSNILIYMTGHGGNGFLKFQDSEEITNIELADAFEQMWQKRRYNELLFIIDTCQGASMYERFYSPNIMALASSQVGEDSLSHQPDPAIGVHLMDRYTFYVLEFLEEINPASQTNMNDLFQVCPKSLCVSTPGHRTDLFQRDPKNVLITDFFGSVRKVEITTETIKLQQDSEIMESSYKEDQMDEKLMEPLKYAEQLPVAQIIHQKPKLKDWHPPGGFILGLWALIIMVFFKTYGIKHMKFIF
modifications: disulfide bond from C92 to PIGT C182
notes: PIGK, human, Genbank ID NP_005473.1; The HA tag follows the TGP tag; also called Gpi8p (yeast name); source: Expi293 cells co-transfected with five plasmids carrying all subunits; purified as the GPI-T complex (Strep-Tactin, Ni-NTA, gel filtration) in digitonin

Common to all, as to assay: cryo-EM structure; single-particle cryo-EM of the purified GPI-T complex in 0.1% digitonin, 150 mM NaCl, 20 mM Tris HCl pH 8.0; 2.53 Å; five subunits with 1:1 stoichiometry
Conditions in all cases: both partners purified

Test [1] concerns the target B2.
Test [2] addresses T1, GPAA1, subunit of the human GPI transamidase (GPI-T) (human, UniProt O43292-1 2-621).
T1 construct: GPAA1, human, Genbank ID NP_003792.1; The 2×Flag tag follows the TGP tag; also called Gaa1p (yeast name); source: Expi293 cells co-transfected with five plasmids carrying all subunits; purified as the GPI-T complex (Strep-Tactin, Ni-NTA, gel filtration) in digitonin
T1 sequence: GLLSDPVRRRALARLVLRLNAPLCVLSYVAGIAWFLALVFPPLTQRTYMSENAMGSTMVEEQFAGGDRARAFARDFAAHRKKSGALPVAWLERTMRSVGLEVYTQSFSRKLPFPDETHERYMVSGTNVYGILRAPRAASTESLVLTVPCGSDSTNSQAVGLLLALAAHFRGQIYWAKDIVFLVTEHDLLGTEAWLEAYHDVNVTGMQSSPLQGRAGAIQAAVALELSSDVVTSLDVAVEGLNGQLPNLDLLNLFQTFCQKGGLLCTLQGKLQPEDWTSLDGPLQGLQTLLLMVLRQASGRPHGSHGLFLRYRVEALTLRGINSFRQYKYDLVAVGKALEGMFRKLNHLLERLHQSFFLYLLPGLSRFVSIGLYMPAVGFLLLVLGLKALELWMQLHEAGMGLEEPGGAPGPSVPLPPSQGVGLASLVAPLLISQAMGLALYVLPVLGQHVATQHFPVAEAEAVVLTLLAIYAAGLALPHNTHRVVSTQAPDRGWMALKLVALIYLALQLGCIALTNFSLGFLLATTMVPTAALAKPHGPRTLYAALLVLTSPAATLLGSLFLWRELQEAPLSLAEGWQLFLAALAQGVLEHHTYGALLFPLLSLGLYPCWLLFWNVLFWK

Test [3] concerns the target B1.
Test [4] addresses B3.

For the molecule B1, the binding result in test [1] is recorded as “binds”.
Consider B2, for which the binding result in test [2] is listed as “binds”.
Regarding B3, the binding result in test [2], in test [3] and in test [1] was “binds” in each case.
For B4, the binding result in test [3], in test [1] and in test [4] was “binds” in each case.
